Test results from the supplement of paper PMC9170038.

Tested on: MS2 coat protein
Test: apparent KD of MS2 coat protein; designed switch direction (-1 OFF switch, 1 ON switch): -1; higher = weaker reporter binding
How it was run: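 SNAP-549-labelled MS2 coat protein was titrated, doubling from 0.7 or 1.5 nM to 3 µM, over designed RNA switches transcribed on Illumina chips by stalled E. coli RNA polymerase. Runs were done without input, with 200 uM small-molecule ligand, or with an oligonucleotide input. Apparent KD is the per-design median over clusters of curve-fitted normalised fluorescence.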

[1] = Eterna round: R95, input ligand: microRNA oligo, concentration not stated
[2] = input ligand: microRNA oligo, concentration not stated
[3] = Eterna round: R95, input ligand: FMN 200 uM
[4] = Eterna round: R95, input ligand: none

Sequence: GGACGGUAAGUGAGGAUAUGCUCUACCUCGGUAGAGCAGAAGGCACAUGAGGAUCACCCAUGUGAAAACUGUUC [Omei Ex4B B31] (Eterna round: R97, puzzle: Brourd's mod of Exclusion 4)
- apparent KD of MS2 coat protein (input ligand: FMN 200 uM): 21.5 nM
- apparent KD of MS2 coat protein (input ligand: none): 15 nM

Sequence: AAUCCACAUGAGGAUCACCCAUGUCAGGAUAUCGCGCGCGCGGUUUCGGUCGCGCGCGCGAGAAGGGACGGCUG (puzzle: Exclusion 1)
- apparent KD of MS2 coat protein [1]: 22.1 nM

Sequence: UGCGAAGAGUGAGGAUAUGUGCGACAAAGUUGCACAGAAGGCACAUGAGGAUCACCCAUGUAAGCUAGGUCGAAAGACCUAGCG [Omei Exc(NG)1 Av5] (Eterna round: R96, puzzle: Exclusion NG 1)
- apparent KD of MS2 coat protein (input ligand: FMN 200 uM): 106 nM
- apparent KD of MS2 coat protein [2]: 40.6 nM
- apparent KD of MS2 coat protein (input ligand: none): 43.4 nM

Sequence: GUGUUGGUAGGAUAUCCACCGACAAACAUGAGGAUCACCCAUGUGACGCUCCCUUGUCUUGGAGAAGGGCCGGCAU [Riritequla] (puzzle: Exclusion 5)
- apparent KD of MS2 coat protein [1]: 42.4 nM

Sequence: UUUGAUUAUGUGAGGAUAUACUGUUUGUAUUGAUUGUAGAAGGUACAUGAGGAUCACCCAUGUUUUGUAUUUAU [JR_BME4_Sub036] (puzzle: Brourd's mod of Exclusion 4)
- apparent KD of MS2 coat protein [1]: 17.1 nM

Sequence: AAAGAAGAGAGAAAAUAACACAUGAGGAUCACCCAUGUGAGAAGAUGAGGGUGAUACAGGCUAUAUGCUCGUCUUAU (puzzle: Sensor v3, turn-off variant 1)
- apparent KD of MS2 coat protein [3]: 62.9 nM
- apparent KD of MS2 coat protein [1]: 350 nM
- apparent KD of MS2 coat protein [4]: 104 nM

Sequence: UACAUGAGGAUCACCCAUGUUUUGUCGUGUAUGGUAUUUAUCUAGGAUAUCAAGUUAUUUAAUUAUGAGAAGGAGAAUAUUAAU [JMF's solution 34] (Eterna round: R96, puzzle: Exclusion NG 3)
- apparent KD of MS2 coat protein (input ligand: FMN 200 uM): 32.8 nM
- apparent KD of MS2 coat protein [2]: 26.6 nM
- apparent KD of MS2 coat protein (input ligand: none): 34.5 nM

Sequence: UAUUAGCAAGCAAGAUCCUACAUGAGGAUCACCCAUGUGCUCGUCUUAAGCUCAGAAUUACUGAGCGCUCGUCUUAU [Winner reversed engineered 23] (Eterna round: R97, puzzle: Sensor, turn-off variant 1)
- apparent KD of MS2 coat protein (input ligand: FMN 200 uM): 468 nM
- apparent KD of MS2 coat protein (input ligand: none): 645 nM

Sequence: CUUGUUUAUGUAGGAUAUGCCUGGCGUGCCUUUGCAGAAGGACAUGAGGAUCACCCAUGUAACAUGAGGCUUACCCUUGUCGCC [salish99_ExNG1_r04_119] (Eterna round: R96, puzzle: Exclusion NG 1)
- apparent KD of MS2 coat protein (input ligand: FMN 200 uM): 80.6 nM
- apparent KD of MS2 coat protein [2]: 56.1 nM
- apparent KD of MS2 coat protein (input ligand: none): 68.9 nM

Sequence: UGGUAACAUGAGGAUCACCCAUGUCAGGAUAUCAGUAAGAAUAGAUGAGAGUAGAAGAUGAGAAGGGACUAUAU [Excluse me! 7 - Jieux - Exclusion 1] (puzzle: Exclusion 1)
- apparent KD of MS2 coat protein [1]: 29.1 nM

Sequence: AUUUUGUCAGGAUAUUAGUAGUAAAUAAAUAAAAUUAUUACUGAGAAGGGACAUGAGGAUCACCCAUGUGUCUU [Salish 062 v9] (Eterna round: R97, puzzle: Exclusion 4)
- apparent KD of MS2 coat protein (input ligand: FMN 200 uM): 39.5 nM
- apparent KD of MS2 coat protein (input ligand: none): 18.3 nM

Sequence: CUCCUGUGAGGAUAUGUAGGCCGCCCGGUCAGCCGAGCGAGACAGAAGGCACAUGAGGAUCACCCAUGUGACUC [EX4 B.13] (Eterna round: R97, puzzle: Exclusion 4)
- apparent KD of MS2 coat protein (input ligand: FMN 200 uM): 42.2 nM
- apparent KD of MS2 coat protein (input ligand: none): 16.6 nM

Sequence: GCAGGAUAAGUGAGGAUAUACCUAUGGAUACAUAGGUAGAAGGCACAUGAGGAUCACCCAUGUUCCUUGCCUGC [Fiskers BMX 4 - 67] (puzzle: Brourd's mod of Exclusion 4)
- apparent KD of MS2 coat protein [1]: 13.2 nM

Sequence: CUCAUGCCUGAGGAUAUGCUGUACAAAAGUACUGCAGAAGGCAGAACAUGAGGAUCACCCAUGUGGCGAAAGCC [Omei Ex G1] (Eterna round: R97, puzzle: Exclusion 6)
- apparent KD of MS2 coat protein (input ligand: FMN 200 uM): 549 nM
- apparent KD of MS2 coat protein (input ligand: none): 106 nM

Sequence: CAUGCUUCGGCAUGUACAAGCUUUUUGCUCGUCUUAUUAACAUGAGGAUCACCCAUGUACAAGAGACCUCAUGUAUU [Sensor v3 - turn-off variant 2 - 11] (puzzle: Sensor v3, turn-off variant 2)
- apparent KD of MS2 coat protein [3]: 293 nM
- apparent KD of MS2 coat protein [1]: 22.9 nM
- apparent KD of MS2 coat protein [4]: 338 nM

Sequence: CUGAGUAGUCAGGAUAUGUGGUACAAAAGUACUGCAGAAGGGAUUACAUGAGGAUCACCCAUGUUAUCUUCAUG [Omei Ex6 B19] (Eterna round: R97, puzzle: Exclusion 6)
- apparent KD of MS2 coat protein (input ligand: FMN 200 uM): 368 nM
- apparent KD of MS2 coat protein (input ligand: none): 144 nM

Sequence: UUUUUAUAACAAGGAUAUACUAAACAUGAGGAUCACCCAUGUAAUAUUAUGAGUGAGAGAGAGAAGUAGAAGGUGUAUUAUUUU [JMF solution 2] (Eterna round: R96, puzzle: Exclusion NG 2)
- apparent KD of MS2 coat protein [2]: 82.4 nM

Sequence: GUCCUCAUGACAUGAGGAUCACCCAUGUAUUAUUUGGUAACUGAGGAUAUACUUUUAAUGUUUAUGUAGAAGGCAGAUACGGUU [JR_ExcNG3_Sub018] (Eterna round: R96, puzzle: Exclusion NG 3)
- apparent KD of MS2 coat protein (input ligand: FMN 200 uM): 197 nM
- apparent KD of MS2 coat protein [2]: 53 nM
- apparent KD of MS2 coat protein (input ligand: none): 62.3 nM

Sequence: AGGUGUAGAGGAUAUCUCUUCUCUCACAUGAGGAUCACCCAUGUCCUGGGUACCUGGGAGAGAGAAGGCUACACCA [Omei Ex5 D12] (Eterna round: R97, puzzle: Exclusion 5)
- apparent KD of MS2 coat protein (input ligand: FMN 200 uM): 1060 nM
- apparent KD of MS2 coat protein (input ligand: none): 2460 nM

Sequence: UACAUACGUCGAUCGAAAGACAUGAGGAUCACCCAUGUACGAUGUCAACGUCAAAUCCAAGUAUUUUGCUCUCGUCA [Eternabot (L2) Solution 32] (Eterna round: R97, puzzle: Sensor, turn-off variant 1)
- apparent KD of MS2 coat protein (input ligand: FMN 200 uM): 15.6 nM
- apparent KD of MS2 coat protein (input ligand: none): 16.1 nM

Sequence: GCCAGAGCAGGAUAUUCAAUAUCACACAUGAGGAUCACCCAUGUCCAGCGAAAGCUGGAGGGAGAAGGGCUCUGGC [Fiskers Ex 5 - 12] (puzzle: Exclusion 5)
- apparent KD of MS2 coat protein [3]: 18.8 nM
- apparent KD of MS2 coat protein [1]: 61.4 nM
- apparent KD of MS2 coat protein [4]: 88.2 nM

Sequence: UUUUUAGAUGAAGGAUAUACUUAACAUGAGGAUCACCCAUGUGGUGUUGUGAGUGAGUGAGUUUAGUAGAAGGUCAAUGAUUUU [JMF's solution 66] (Eterna round: R96, puzzle: Exclusion NG 2)
- apparent KD of MS2 coat protein (input ligand: FMN 200 uM): 937 nM
- apparent KD of MS2 coat protein [2]: 246 nM
- apparent KD of MS2 coat protein (input ligand: none): 377 nM

Sequence: CUCAUGUGAGGAUAUGUGAUCUGCCUUCUAUGUAGAUGAUCACAGAAGGCACAUGAGGAUCACCCAUGUAGAUC [Ex4 - 3 - 27] (puzzle: Exclusion 4)
- apparent KD of MS2 coat protein [1]: 69.2 nM

Sequence: AUCGUGCAGCAAAGCUGUACGAGUACAUGAGGAUCACCCAUGUAGGAUAUGGUACGCAAAGCGUGCUAGAAGGAUAUGAGAUUA [Mat - Exclusion NG 3 - Mod of JL - D97] (Eterna round: R96, puzzle: Exclusion NG 3)
- apparent KD of MS2 coat protein (input ligand: FMN 200 uM): 38.1 nM
- apparent KD of MS2 coat protein [2]: 32.6 nM
- apparent KD of MS2 coat protein (input ligand: none): 57.7 nM

Sequence: CGUCCUGUAGUGAGGAUAUUGUCUCGGAUACGAAACAAGAAGGCACAUGAGGAUCACCCAUGUAAUCAGGACGA [Malc #30 mod 12] (puzzle: Brourd's mod of Exclusion 4)
- apparent KD of MS2 coat protein [3]: 14.1 nM
- apparent KD of MS2 coat protein [1]: 16.1 nM
- apparent KD of MS2 coat protein [4]: 13.3 nM

Sequence: UACAUGAGGAUCACCCAUGUUUUGUCGUGUAUGGUAUUUAUCUAGGAUAUCAAUUUAGUCAUUUAUGAGAAGGAGAAUAUUAAU [JMF's solution 74] (Eterna round: R96, puzzle: Exclusion NG 3)
- apparent KD of MS2 coat protein (input ligand: FMN 200 uM): 35.5 nM
- apparent KD of MS2 coat protein [2]: 28.6 nM
- apparent KD of MS2 coat protein (input ligand: none): 38.4 nM

Sequence: GAUUGAGAGCAGGAUAUCAUAGAAAUGUAUGAAUGAGAAGGGCUCACAUGAGGAUCACCCAUGUGGUCCUAGAU [JL Dibiri mod 18] (puzzle: Exclusion 6)
- apparent KD of MS2 coat protein [1]: 21.9 nM

Sequence: AGGAUACGAGGAUAUACGCGGAGACCUCAGGGUCUACAAACACAUGAGGAUCACCCAUGUAGAAGGCGUACCAG [Eternabot (Original) Solution 11] (Eterna round: R97, puzzle: Exclusion 2)
- apparent KD of MS2 coat protein (input ligand: FMN 200 uM): 394 nM
- apparent KD of MS2 coat protein (input ligand: none): 42 nM

Sequence: UACAUGAGGAUCACCCAUGUUUUGUCGUGUAUGGUAUUUAUCUAGGAUAUCAUUCUAUUUAGUUAUGAGAAGGAGAAUAUUAAU [JMF's solution 84] (Eterna round: R96, puzzle: Exclusion NG 3)
- apparent KD of MS2 coat protein [2]: 21.1 nM

Sequence: GCAGGUCAAGGAUAUACAUGAGGAUCACCCAUGUAGAUCAACCAGCGAUAGCUGGAAUGUAGAAGGUGACCUGC [E3/5-C2] (Eterna round: R97, puzzle: Exclusion 3)
- apparent KD of MS2 coat protein (input ligand: FMN 200 uM): 67.6 nM
- apparent KD of MS2 coat protein (input ligand: none): 23.7 nM

Sequence: GAGCUGUGAGGAUAUACAUGAGGAUCACCCAUGUUAAGGAAGUGGUGAAUAAUUUAGUGUAGAAGGCACUUAUU [JR_Ex3_Sub023] (Eterna round: R97, puzzle: Exclusion 3)
- apparent KD of MS2 coat protein (input ligand: FMN 200 uM): 530 nM
- apparent KD of MS2 coat protein (input ligand: none): 116 nM

Sequence: CGGAGCGUAGGUAGGUUCAACAUGAGGAUCACCCAUGUCUCACAAGCUUUUUGCUCAUCUUAUUGUACCUUGGUGCU [Sensor v3, turn-off variant 1 (MOD of JL )] (puzzle: Sensor v3, turn-off variant 1)
- apparent KD of MS2 coat protein [3]: 117 nM
- apparent KD of MS2 coat protein [1]: 37.3 nM
- apparent KD of MS2 coat protein [4]: 144 nM

Sequence: AGAUAGUUAGGAUAUACAUGAGGAUCACCCAUGUAGAAAAGUGGCUAAUGAGACUCCGGUAGAAGGAACAAAAU [Isanqurama] (puzzle: Exclusion 3)
- apparent KD of MS2 coat protein [3]: 41.7 nM
- apparent KD of MS2 coat protein [1]: 20 nM
- apparent KD of MS2 coat protein [4]: 27.7 nM

Sequence: ACAUGAGGAUCACCCAUGUCCGGCUGGUCCGUCUCGGCUGUCGAGGAUAUAGCUCGGUGUCCGCGCUAGAAGGUGGGAGCUGGU [Aenatbe mod 68] (Eterna round: R96, puzzle: Exclusion NG 3)
- apparent KD of MS2 coat protein (input ligand: FMN 200 uM): 150 nM
- apparent KD of MS2 coat protein [2]: 93.3 nM
- apparent KD of MS2 coat protein (input ligand: none): 135 nM

Sequence: CUCUUGGCAGGAUAUGCUUUUUUAGACAUGAGGAUCACCCAUGUGAUGAAUAUUGGGUUCGCAGAAGGGCCUGAAU [JR_E5_Sub040] (puzzle: Exclusion 5)
- apparent KD of MS2 coat protein [1]: 48.4 nM
